From patent US20240279281A1, “Peptide Inhibitors of Interleukin-23 Receptor” (Janssen Pharmaceutica NV, priority 2023, published 2024)
Structures can show the parent of a compound that is named as a salt. Starred links: 1 amine or outer side, 2 acyl side, 3 side chain; linkers in the order of their positions; H or OH if unused. Positions of bridges follow the written chain, without caps; N, C: chain ends. Non-standard residues stand in square brackets, D forms with d. Residues, ends and D or L forms follow the SMILES beside them. *: point of attachment. AEF(G) = 2-amino-3-(4-(2-guanidinoethoxy)phenyl)propanoic acid, N=C(N)NCCOc1ccc(C[C@H](N[*:1])C(=O)[*:2])cc1; Trp(7-(3-AcNH-Ph)) = CC(=O)Nc1cccc(-c2cccc3c(C[C@H](N)C(=O)O)c[nH]c23)c1; 2Nal(6-OH) = N[C@@H](Cc1ccc2cc(O)ccc2c1)C(=O)O; Trp(7-Me) = Cc1cccc2c(C[C@H](N)C(=O)O)c[nH]c12; Hexanoyl(6-NMe3+) = C[N+](C)(C)CCCCCC(=O)*; 3Pal(5-Me) = Cc1cncc(C[C@H](N)C(=O)O)c1; AEF = NCCOc1ccc(C[C@H](N)C(=O)O)cc1; 3Pal = N[C@@H](Cc1cccnc1)C(=O)O; Pen = CC(C)(S)[C@H](N)C(=O)O; Thp = NC1(C(=O)O)CCOCC1; Me2NCH2CH2 = CN(C)CC*; Tfa = O=C(C(F)(F)F)*; Sar = CNCC(=O)O

T1: interleukin-23 receptor (IL-23R) (UniProt Q5VWK5 24-629, limits assumed)
T1 sequence (looked up): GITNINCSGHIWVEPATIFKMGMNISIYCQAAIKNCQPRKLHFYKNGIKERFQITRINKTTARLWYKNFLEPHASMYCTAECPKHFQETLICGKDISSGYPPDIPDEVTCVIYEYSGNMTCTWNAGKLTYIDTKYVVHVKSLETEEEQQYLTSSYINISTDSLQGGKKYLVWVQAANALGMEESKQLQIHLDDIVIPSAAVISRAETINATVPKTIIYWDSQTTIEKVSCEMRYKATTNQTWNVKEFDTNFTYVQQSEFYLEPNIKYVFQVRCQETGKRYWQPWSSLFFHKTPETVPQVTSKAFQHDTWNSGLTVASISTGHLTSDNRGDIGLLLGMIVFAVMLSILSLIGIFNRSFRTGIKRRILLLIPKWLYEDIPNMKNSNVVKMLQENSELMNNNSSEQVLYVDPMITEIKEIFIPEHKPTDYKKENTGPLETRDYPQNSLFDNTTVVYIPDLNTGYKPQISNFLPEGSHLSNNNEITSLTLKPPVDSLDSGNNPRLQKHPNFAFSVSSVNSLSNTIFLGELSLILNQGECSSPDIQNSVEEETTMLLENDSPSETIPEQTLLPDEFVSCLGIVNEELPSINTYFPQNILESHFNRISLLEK

T2: IL-23-stimulated phosphorylated STAT3 in peripheral blood mononuclear cells (PBMCs) (Homo sapiens, UniProt Q5VWK5)
T2 sequence (Q5VWK5 24-629): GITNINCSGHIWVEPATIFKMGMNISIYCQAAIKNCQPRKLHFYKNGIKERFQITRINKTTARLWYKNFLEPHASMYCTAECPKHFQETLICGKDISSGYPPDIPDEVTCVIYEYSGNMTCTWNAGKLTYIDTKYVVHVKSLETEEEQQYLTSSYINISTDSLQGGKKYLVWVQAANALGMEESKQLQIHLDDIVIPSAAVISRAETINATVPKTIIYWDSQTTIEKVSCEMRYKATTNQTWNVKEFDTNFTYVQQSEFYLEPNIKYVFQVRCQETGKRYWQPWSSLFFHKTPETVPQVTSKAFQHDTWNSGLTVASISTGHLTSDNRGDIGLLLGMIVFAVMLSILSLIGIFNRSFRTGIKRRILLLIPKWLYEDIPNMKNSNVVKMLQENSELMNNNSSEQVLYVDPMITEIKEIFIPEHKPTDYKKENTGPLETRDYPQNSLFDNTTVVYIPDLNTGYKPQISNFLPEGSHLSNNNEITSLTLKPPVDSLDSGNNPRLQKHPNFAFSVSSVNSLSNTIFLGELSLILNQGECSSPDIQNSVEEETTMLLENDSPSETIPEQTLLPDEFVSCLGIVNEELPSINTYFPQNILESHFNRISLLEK

T3: IL-23R (Homo sapiens, UniProt Q5VWK5)
T3 construct: host or cells: HEK293
T3 sequence (Q5VWK5 24-629): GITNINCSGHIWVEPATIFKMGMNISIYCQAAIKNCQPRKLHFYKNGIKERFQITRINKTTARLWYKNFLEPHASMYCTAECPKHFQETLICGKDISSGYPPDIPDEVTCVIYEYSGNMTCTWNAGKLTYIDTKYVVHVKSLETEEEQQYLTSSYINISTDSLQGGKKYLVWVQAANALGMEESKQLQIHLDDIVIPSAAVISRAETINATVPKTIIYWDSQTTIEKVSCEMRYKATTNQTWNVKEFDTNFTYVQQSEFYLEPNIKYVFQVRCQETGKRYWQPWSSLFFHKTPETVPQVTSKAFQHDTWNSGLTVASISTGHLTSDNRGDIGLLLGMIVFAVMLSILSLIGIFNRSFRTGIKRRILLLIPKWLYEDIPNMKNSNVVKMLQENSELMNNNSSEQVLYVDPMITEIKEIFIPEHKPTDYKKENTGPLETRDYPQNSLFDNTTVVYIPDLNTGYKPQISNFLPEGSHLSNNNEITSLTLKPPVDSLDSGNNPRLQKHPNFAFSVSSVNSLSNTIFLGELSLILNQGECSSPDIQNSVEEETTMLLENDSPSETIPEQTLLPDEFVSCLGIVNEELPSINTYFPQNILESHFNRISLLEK

T4: interleukin-23 receptor (IL-23R) (UniProt Q5VWK5 24-629, limits assumed)
T4 sequence (looked up): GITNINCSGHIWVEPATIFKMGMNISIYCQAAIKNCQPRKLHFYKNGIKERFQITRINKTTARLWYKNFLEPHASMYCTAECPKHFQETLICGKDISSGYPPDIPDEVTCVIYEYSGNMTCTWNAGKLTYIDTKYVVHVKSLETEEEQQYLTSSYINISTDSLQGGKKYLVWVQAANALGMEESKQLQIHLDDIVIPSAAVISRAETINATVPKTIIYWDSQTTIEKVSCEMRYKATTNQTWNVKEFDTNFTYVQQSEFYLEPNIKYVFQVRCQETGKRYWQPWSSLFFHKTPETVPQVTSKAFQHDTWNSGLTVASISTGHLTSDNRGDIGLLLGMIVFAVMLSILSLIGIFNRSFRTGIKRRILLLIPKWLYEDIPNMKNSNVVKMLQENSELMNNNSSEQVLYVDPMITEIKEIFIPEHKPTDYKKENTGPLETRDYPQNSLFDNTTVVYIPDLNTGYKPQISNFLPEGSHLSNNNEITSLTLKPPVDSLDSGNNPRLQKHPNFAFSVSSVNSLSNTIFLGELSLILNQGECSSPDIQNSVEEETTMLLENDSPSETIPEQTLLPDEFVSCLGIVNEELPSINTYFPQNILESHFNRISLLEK

B1: SEQ ID NO: 15 (peptide)
peptide: Ac-[dR][Pen]NT[Trp(7-(3-AcNH-Ph))]K(Ac)[Pen][AEF(G)][2Nal(6-OH)][Thp]EN[3Pal(5-Me)][Sar]-NH2
modifications: disulfide 2-7 (inferred)
B2: SEQ ID NO: 428 (peptide)
peptide: Ac-[Pen]NT[Trp(7-Me)]K(Ac)[Pen][AEF][2Nal(6-OH)][Thp]EN[3Pal][Sar]-NH2
modifications: disulfide 1-6 (inferred)
B3: SEQ ID NO: 15 (peptide)
peptide: Ac-[dR][Pen]NT[Trp(7-(3-AcNH-Ph))]K(Ac)[Pen][AEF(G)][2Nal(6-OH)][Thp]EN[3Pal(5-Me)][Sar]-NH2
modifications: disulfide 2-7 (inferred)
B4: SEQ ID NO: 442 (peptide)
peptide: Ac-[dR][Pen]NT[Trp(7-Me)]K(Ac)[Pen][AEF][2Nal(6-OH)][Thp]EN[3Pal][Sar]-NH2
modifications: disulfide 2-7 (inferred)
B5: SEQ ID NO: 349 (peptide)
peptide: Ac-X[Pen]NT[Trp(7-Me)]K(Ac)[Pen][AEF][2Nal(6-OH)][Thp]EN[3Pal][Sar]-NH2
modifications: disulfide 2-7 (inferred); not fully specified (residue 1); printed as MeCO-k(d)-Pen(3)-N-T-7MeW-K(Ac)-Pen(3)-AEF-6OH2Nal-THP-E-N-3Pya-Sar-CONH2

biological target: T1, interleukin-23 receptor (IL-23R); assay: cell-based or functional assay; conditions: not given

PBMC pSTAT3 IC50	Molecule
< 10 pM	B1
< 10 pM	B2

test system: not given; assay: not given; conditions: from CF3CO-dLys(5cpa)-Pen-Asn(NMe2)-Thr-7MeTrp-Gln(NMe2)-Pen-AEF(NMe2)-6OH2Nal-THP-Gln(NMe2)-Asn-3Pya-Sar-NMe2; disulfide bond; 20-membered ring; I2/MeOH; 20% MeCN/H2O; 0.51 mM

Molecule	ring closure, yield after HPLC
Cc1cccc2c(C[C@@H]3NC(=O)[C@H]([C@@H](C)O)NC(=O)[C@H](CC(=O)N(C)C)NC(=O)[C@@H](NC(=O)[C@@H](CCCCNC(=O)CCCCC[N+](C)(C)C)NC(=O)C(F)(F)F)C(C)(C)SSC(C)(C)[C@@H](C(=O)N[C@@H](Cc4ccc(OCCN(C)C)cc4)C(=O)N[C@@H](Cc4ccc5cc(O)ccc5c4)C(=O)NC4(C(=O)N[C@@H](CCC(=O)N(C)C)C(=O)N[C@@H](CC(N)=O)C(=O)N[C@@H](Cc5cccnc5)C(=O)N(C)CC(=O)N(C)C)CCOCC4)NC(=O)[C@H](CCC(=O)N(C)C)NC3=O)c[nH]c12 [SEQ ID NO: 405, CF3CO-k(5cpa)-Pen(3)-N(N(Me)2)-T-7MeW-Q(N(Me)2)-Pen(3)-AEF(N(Me)2)-6OH2Nal-THP-Q(N(Me)2)-N-3Pya-Sar-CON(Me)2] (Tfa-[dK](Hexanoyl(6-NMe3+))[Pen]D(NMe2)T[Trp(7-Me)]E(NMe2)[Pen]Y(Me2NCH2CH2)[2Nal(6-OH)][Thp]E(NMe2)N[3Pal][Sar]-NMe2; disulfide 2-7)	13.4%

biological target: T2, IL-23-stimulated phosphorylated STAT3 in peripheral blood mononuclear cells (PBMCs); assay: PBMC pSTAT3 Assay; format: cell-based; conditions: PBMCs from healthy donors, IL-23 5 ng/mL, 30 minutes, read-out: PBMC pSTAT3 IC50
Summary of the method: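 Anti-CD3/IL-1β-expanded donor PBMCs (day 4) starved ~4 h in RPMI-0.1% BSA, preincubated 30 min with peptide, then stimulated 30 min at 37° C with 5 ng/mL IL-23 (final). Lysates read for phospho-STAT3 by Meso Scale phospho-STAT panel immunoassay.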

Molecule	IC50
Cc1cccc2c(C[C@@H]3NC(=O)[C@H]([C@@H](C)O)NC(=O)[C@H](CC(=O)N(C)C)NC(=O)[C@@H](NC(=O)[C@@H](CCCCNC(=O)CCCCC[N+](C)(C)C)NC(=O)C(F)(F)F)C(C)(C)SSC(C)(C)[C@@H](C(=O)N[C@@H](Cc4ccc(OCCN(C)C)cc4)C(=O)N[C@@H](Cc4ccc5cc(O)ccc5c4)C(=O)NC4(C(=O)N[C@@H](CCC(=O)N(C)C)C(=O)N[C@@H](CC(N)=O)C(=O)N[C@@H](Cc5cccnc5)C(=O)N(C)CC(=O)N(C)C)CCOCC4)NC(=O)[C@H](CCC(=O)N(C)C)NC3=O)c[nH]c12 [SEQ ID NO: 405, CF3CO-k(5cpa)-Pen(3)-N(N(Me)2)-T-7MeW-Q(N(Me)2)-Pen(3)-AEF(N(Me)2)-6OH2Nal-THP-Q(N(Me)2)-N-3Pya-Sar-CON(Me)2] (Tfa-[dK](Hexanoyl(6-NMe3+))[Pen]D(NMe2)T[Trp(7-Me)]E(NMe2)[Pen]Y(Me2NCH2CH2)[2Nal(6-OH)][Thp]E(NMe2)N[3Pal][Sar]-NMe2; disulfide 2-7)	0.01 to 0.1 nM

biological target: T3, IL-23R; assay: IL23R Reporter Assay; format: cell-based; conditions: HEK293 cells containing IL-23R, IL-12Rβ1 and STAT-inducible luciferase reporter; 10 ng/mL IL-23; 5 h; read-out: IC50
Description: Compounds were serially diluted in 100% (v/v) DMSO) and plated using an Echo acoustic dispenser (Labcyte) into 1536-well non-treated black assay plates (Corning #9146). […] After 5 h at 37° C., 5% CO2, 95% relative humidity, cells were placed at 20° C. and treated with BioGlo reagent (Promega) according to the Manufacturer's instructions. Luminescence was measured on a Pherastar FSX (BMG LabTech).

Molecule	IC50
Cc1cccc2c(C[C@@H]3NC(=O)[C@H]([C@@H](C)O)NC(=O)[C@H](CC(=O)N(C)C)NC(=O)[C@@H](NC(=O)[C@@H](CCCCNC(=O)CCCCC[N+](C)(C)C)NC(=O)C(F)(F)F)C(C)(C)SSC(C)(C)[C@@H](C(=O)N[C@@H](Cc4ccc(OCCN(C)C)cc4)C(=O)N[C@@H](Cc4ccc5cc(O)ccc5c4)C(=O)NC4(C(=O)N[C@@H](CCC(=O)N(C)C)C(=O)N[C@@H](CC(N)=O)C(=O)N[C@@H](Cc5cccnc5)C(=O)N(C)CC(=O)N(C)C)CCOCC4)NC(=O)[C@H](CCC(=O)N(C)C)NC3=O)c[nH]c12 [SEQ ID NO: 405, CF3CO-k(5cpa)-Pen(3)-N(N(Me)2)-T-7MeW-Q(N(Me)2)-Pen(3)-AEF(N(Me)2)-6OH2Nal-THP-Q(N(Me)2)-N-3Pya-Sar-CON(Me)2] (Tfa-[dK](Hexanoyl(6-NMe3+))[Pen]D(NMe2)T[Trp(7-Me)]E(NMe2)[Pen]Y(Me2NCH2CH2)[2Nal(6-OH)][Thp]E(NMe2)N[3Pal][Sar]-NMe2; disulfide 2-7)	< 10 nM

biological target: T4, interleukin-23 receptor (IL-23R); assay: cell-based or functional assay; conditions: not given

IL23R Reporter Assay IC50	Molecule
< 10 nM	B3
< 10 nM	B4
< 10 nM	B5
